Reference: PMC4860965, “A novel role for the tumour suppressor Nitrilase1 modulating the Wnt/β-catenin signalling pathway” (Cell Discovery, 2016)

Molecular target: T1, GST-β-catenin (GST-β-cat (aa1–781)) (UniProt P35222 1-781)
T1 construct: β-catenin aa1–781; the cDNA may be mouse (surmise); source: E. coli XL1 blue or BL21-RE4, purified (glutathione-agarose)
T1 sequence (looked up): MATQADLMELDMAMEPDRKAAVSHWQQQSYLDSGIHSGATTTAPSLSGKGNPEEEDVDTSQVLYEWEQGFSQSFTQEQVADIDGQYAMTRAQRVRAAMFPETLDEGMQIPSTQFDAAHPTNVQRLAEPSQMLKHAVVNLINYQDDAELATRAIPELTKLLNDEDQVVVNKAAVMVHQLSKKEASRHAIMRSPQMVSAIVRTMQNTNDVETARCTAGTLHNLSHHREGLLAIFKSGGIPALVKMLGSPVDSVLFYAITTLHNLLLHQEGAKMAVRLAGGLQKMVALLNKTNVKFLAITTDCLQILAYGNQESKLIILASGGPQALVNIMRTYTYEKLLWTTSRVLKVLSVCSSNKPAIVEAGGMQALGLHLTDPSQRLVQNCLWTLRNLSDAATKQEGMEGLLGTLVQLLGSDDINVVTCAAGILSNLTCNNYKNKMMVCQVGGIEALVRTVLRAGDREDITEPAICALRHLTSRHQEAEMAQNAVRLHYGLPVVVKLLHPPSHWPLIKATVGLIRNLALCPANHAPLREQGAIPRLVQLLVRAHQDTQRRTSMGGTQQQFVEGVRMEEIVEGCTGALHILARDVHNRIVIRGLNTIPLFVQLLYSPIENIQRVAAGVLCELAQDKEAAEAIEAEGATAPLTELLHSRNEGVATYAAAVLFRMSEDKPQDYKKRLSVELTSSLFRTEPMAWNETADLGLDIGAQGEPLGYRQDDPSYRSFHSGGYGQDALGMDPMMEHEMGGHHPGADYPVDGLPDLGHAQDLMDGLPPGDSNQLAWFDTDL
Assay: pull-down; 4 μg GST or GST fusion protein with 5 μg MBP fusion protein, 150 mM NaCl, 20 mM imidazole or HEPES pH 8.0, 2 mM MgCl2, 300 mM sucrose, 0.25% Triton X-100, 20 min at 4 °C; glutathione-agarose beads; western blot with anti-MBP
Details: both partners purified

binding result: binds
B1: MBP-dNitFhit (natural protein, D. melanogaster, UniProt O76464 1-460, looked up)
chain: MSTLVNTTRRSIVIAIHQQLRRMSVQKRKDQSATIAVGQMRSTSDKAANLSQVIELVDRAKSQNACMLFLPECCDFVGESRTQTIELSEGLDGELMAQYRELAKCNKIWISLGGVHERNDQKIFNAHVLLNEKGELAAVYRKLHMFDVTTKEVRLRESDTVTPGYCLERPVSTPVGQIGLQICYDLRFAEPAVLLRKLGANLLTYPSAFTYATGKAHWEILLRARAIETQCFVVAAAQIGWHNQKRQSWGHSMIVSPWGNVLADCSEQELDIGTAEVDLSVLQSLYQTMPCFEHRRNDIYALTAYNLRSKEPTQDRPFATNIVDKRTIFYESEHCFAFTNLRCVVKGHVLVSTKRVTPRLCGLDCAEMADMFTTVCLVQRLLEKIYQTTSATVTVQDGAQAGQTVPHVHFHIMPRRLGDFGHNDQIYVKLDERAEEKPPRTIEERIEEAQIYRKFLTDIS
notes: Drosophila melanogaster NitFhit, amplified from the intronless genomic DNA; source: E. coli XL1 blue or BL21-RE4, purified (amylose resin)
